Data: paper PMC9363427, “The SWI/SNF chromatin remodeling factor DPF3 regulates metastasis of ccRCC by modulating TGF-β signaling” (Nature Communications, 2022)

T1: GST-tagged full-length SNIP1 (recombinant) (human, UniProt Q8TAD8 1-396)
T1 construct: also called SNIP1-FL; source: E. coli BL21 (DE3)-RIL, purified (Glutathione Sepharose 4B, Superdex 200)
T1 sequence (looked up): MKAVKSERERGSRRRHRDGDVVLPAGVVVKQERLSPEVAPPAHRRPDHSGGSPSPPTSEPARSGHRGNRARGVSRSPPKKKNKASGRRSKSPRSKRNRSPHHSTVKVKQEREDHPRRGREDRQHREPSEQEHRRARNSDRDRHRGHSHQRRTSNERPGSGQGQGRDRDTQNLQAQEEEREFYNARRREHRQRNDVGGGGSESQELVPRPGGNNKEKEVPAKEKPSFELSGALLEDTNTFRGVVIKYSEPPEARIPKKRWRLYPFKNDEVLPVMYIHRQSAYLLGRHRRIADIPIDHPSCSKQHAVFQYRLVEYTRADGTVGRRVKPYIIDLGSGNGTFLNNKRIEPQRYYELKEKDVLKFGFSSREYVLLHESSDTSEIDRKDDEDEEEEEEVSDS

B1: GST-tagged SNIP1 N-terminus (1-240) (recombinant) (domain or fragment, human, UniProt Q8TAD8 1-240, looked up)
chain: MKAVKSERERGSRRRHRDGDVVLPAGVVVKQERLSPEVAPPAHRRPDHSGGSPSPPTSEPARSGHRGNRARGVSRSPPKKKNKASGRRSKSPRSKRNRSPHHSTVKVKQEREDHPRRGREDRQHREPSEQEHRRARNSDRDRHRGHSHQRRTSNERPGSGQGQGRDRDTQNLQAQEEEREFYNARRREHRQRNDVGGGGSESQELVPRPGGNNKEKEVPAKEKPSFELSGALLEDTNTFR
notes: also called SNIP1-IDR; source: E. coli BL21 (DE3)-RIL, purified (Glutathione Sepharose 4B, Superdex 200)
B2: Recombinant full-length DPF3a, GST tag removed (natural protein, human, UniProt Q92784-2 1-357, looked up)
chain: MATVIHNPLKALGDQFYKEAIEHCRSYNSRLCAERSVRLPFLDSQTGVAQNNCYIWMEKRHRGPGLAPGQLYTYPARCWRKKRRLHPPEDPKLRLLEIKPEVELPLKKDGFTSESTTLEALLRGEGVEKKVDAREEESIQEIQRVLENDENVEEGNEEEDLEEDIPKRKNRTRGRARGSAGGRRRHDAASQEDHDKPYVCDICGKRYKNRPGLSYHYAHTHLASEEGDEAQDQETRSPPNHRNENHRPQKGPDGTVIPNNYCDFCLGGSNMNKKSGRPEELVSCADCGRSAHLGGEGRKEKEAAAAARTTEDLFGSTSESDTSTFHGFDEDDLEEPRSCRGRRSGRGSPTADKKGSC
notes: Zinc finger protein DPF3, isoform DPF3a, cDNA subcloned into pGEX-6P-1; Expressed with 0.1 mM ZnSO4; also called DPF3a-FL; full-length DPF3a proteins; source: E. coli BL21 (DE3)-RIL, purified (Glutathione Sepharose 4B, 3C protease, Superdex 200)

Experiments:
[1] = target: B2; experiment: pull-down; 1.5 nmol GST-tagged DPF3a or SNIP1 construct on Glutathione Sepharose 4B beads, 2 nmol SNIP1 1-240 or full-length DPF3a added, 4 °C 2 h; 20 mM Tris pH 7.5, 100 mM NaCl, 5 mM β-mercaptomethanol; washes with 0.5% Triton X-100; SDS-PAGE; conditions: both partners purified
[2] = target: T1, GST-tagged full-length SNIP1 …; experiment: as above; conditions: both partners purified

| binding result [1] | binding result [2] | Binder |
| --- | --- | --- |
| binds | – | B1 |
| – | binds | B2 |
